Assay results from US20030095962A1, “Chimeric cell-surface receptors that undergo antigen-induced association” (priority 1997, published 2003).

Molecular target: hen egg lysozyme (hen) (UniProt P00698)
Assay: cell-based or functional assay

Sequence of pair of chimeric receptor polypeptides: HyHEL-10 VH fused to mouse erythropoietin receptor (pME-VHER) and HyHEL-10 VL fused to mouse erythropoietin receptor (pME-VLER), expressed on Ba/F3 cells (from (P14753 146-507, change not shown): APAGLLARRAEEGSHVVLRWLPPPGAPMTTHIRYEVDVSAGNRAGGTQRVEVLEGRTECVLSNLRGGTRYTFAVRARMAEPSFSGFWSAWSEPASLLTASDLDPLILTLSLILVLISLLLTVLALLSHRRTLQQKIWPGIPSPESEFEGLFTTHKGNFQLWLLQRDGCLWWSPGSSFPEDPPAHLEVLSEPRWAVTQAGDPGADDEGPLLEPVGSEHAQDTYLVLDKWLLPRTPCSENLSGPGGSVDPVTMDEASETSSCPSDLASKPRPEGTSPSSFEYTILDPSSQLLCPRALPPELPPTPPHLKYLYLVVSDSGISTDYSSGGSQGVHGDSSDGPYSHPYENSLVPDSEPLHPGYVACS
Sequence of pair of chimeric receptor polypeptides: HyHEL-10 VH fused to mouse erythropoietin receptor (pME-VHER) and HyHEL-10 VL fused to mouse erythropoietin receptor (pME-VLER), expressed on Ba/F3 cells (from (P14753 146-507, change not shown): as above
Sequence of hen egg lysozyme (hen) (P00698 19-147): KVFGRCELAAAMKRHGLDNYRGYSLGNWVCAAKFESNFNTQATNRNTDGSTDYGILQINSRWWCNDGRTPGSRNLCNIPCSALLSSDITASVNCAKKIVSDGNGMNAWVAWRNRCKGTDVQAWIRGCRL

With “pair of chimeric receptor polypeptides: HyHEL-10 VH fused to mouse erythropoietin receptor (pME-VHER) and HyHEL-10 VL fused to mouse erythropoietin receptor (pME-VLER), expressed on Ba/F3 cells (from UniProt P14753 146-507; P14753 146-507)” the cell proliferation of Clone G8 cultured with different constant amounts of HEL over a 5-day period (times the rate) was greater than 5 and the lowest HEL concentration giving accelerated cell growth was 5 ng/mL.
